From US20250145680A1 (REMD BIOTHERAPEUTICS, published 2025) come the findings set out here.

Changes are numbered by the printed parent chain. Names and notes keep the numbering of the source.

The experiment deals with T1, Type I IFN receptor (IFNAR) (UniProt P17181 28-557; P48551 27-515, limits assumed).
T1 sequence (looked up) 1: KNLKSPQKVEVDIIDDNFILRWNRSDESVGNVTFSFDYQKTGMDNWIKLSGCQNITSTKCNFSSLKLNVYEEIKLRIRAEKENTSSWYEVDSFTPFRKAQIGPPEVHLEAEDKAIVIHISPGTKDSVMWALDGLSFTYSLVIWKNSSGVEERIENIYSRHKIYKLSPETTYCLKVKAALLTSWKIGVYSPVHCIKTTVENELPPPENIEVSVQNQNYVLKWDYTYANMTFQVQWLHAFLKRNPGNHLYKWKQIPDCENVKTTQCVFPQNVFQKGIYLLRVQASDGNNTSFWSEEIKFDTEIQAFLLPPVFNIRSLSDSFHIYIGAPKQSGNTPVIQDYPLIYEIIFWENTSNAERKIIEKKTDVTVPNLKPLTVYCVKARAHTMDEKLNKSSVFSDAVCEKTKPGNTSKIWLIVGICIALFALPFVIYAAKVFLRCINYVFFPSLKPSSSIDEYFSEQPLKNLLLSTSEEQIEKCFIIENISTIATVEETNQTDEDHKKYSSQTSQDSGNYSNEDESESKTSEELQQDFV
T1 sequence (looked up) 2: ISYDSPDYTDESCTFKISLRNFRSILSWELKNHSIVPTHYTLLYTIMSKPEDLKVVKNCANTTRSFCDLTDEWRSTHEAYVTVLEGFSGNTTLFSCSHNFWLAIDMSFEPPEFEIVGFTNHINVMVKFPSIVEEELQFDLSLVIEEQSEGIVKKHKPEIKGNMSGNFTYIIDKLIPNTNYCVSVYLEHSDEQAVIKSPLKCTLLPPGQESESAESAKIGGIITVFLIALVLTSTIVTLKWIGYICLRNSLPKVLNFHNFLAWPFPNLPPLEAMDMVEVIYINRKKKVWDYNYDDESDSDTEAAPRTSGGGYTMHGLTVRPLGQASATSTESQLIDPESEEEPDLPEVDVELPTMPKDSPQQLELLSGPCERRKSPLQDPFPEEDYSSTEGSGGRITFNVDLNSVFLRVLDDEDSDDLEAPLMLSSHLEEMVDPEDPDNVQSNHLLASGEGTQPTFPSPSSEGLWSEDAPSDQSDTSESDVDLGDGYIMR
The experiment is described as follows: cell-based or functional assay.

B1: anti-PD-L1 Ab-con-IFN-α heterodimeric fusion molecule (FP-19), con-IFN-α (R150A), G8 linker (other)
light: DIQMTQSPSSVSASVGDRVTITCKTSQDVNTAVAWYQQKPGQAPRLLIYWASTRHTGVPDRFSGSGSGTDFTLTISSLQAEDVAVYYCQQHYNTPLTFGGGTKLEIKRTVAAPSVFIFPPSDEQLKSGTASVVCLLNNFYPREAKVQWKVDNALQSGNSQESVTEQDSKDSTYSLSSTLTLSKADYEKHKVYACEVTHQGLSSPVTKSFNRGEC
heavy 1: QMQLVQSGAEVKKTGSSVKVSCKASGYTFTSYSINWVRQAPGKGLEWVAYFYVGNGYTDYNEKFKGRVTMTRDTSTSTVYMELSSLRSEDTAVYYCARGGLPYYFDYWGQGTLVTVSSASTKGPSVFPLAPCSRSTSESTAALGCLVKDYFPEPVTVSWNSGALTSGVHTFPAVLQSSGLYSLSSVVTVPSSSLGTKTYTCNVDHKPSNTKVDKRVESKYGPPCPPCPAPEFLGGPSVFLFPPKPKDTLMISRTPEVTCVVVDVSQEDPEVQFNWYVDGVEVHNAKTKPREEQFNSTYRVVSVLTVLHQDWLNGKEYKCKVSNKGLPSSIEKTISKAKGQPREPQVCTLPPSQEEMTKNQVSLSCAVKGFYPSDIAVEWESNGQPENNYKTTPPVLDSDGSFFLVSRLTVDKSRWQEGNVFSCSVMHEALHNHYTQKSLSLSLGGGGGGGGGCDLPQTHSLGNRRALILLAQMRRISPFSCLKDRHDFGFPQEEFDGNQFQKAQAISVLHEMIQQTFNLFSTKDSSAAWDESLLEKFYTELYQQLNDLEACVIQEVGVEETPLMNVDSILAVKKYFQRITLYLTEKKYSPCAWEVVRAEIMASFSLSTNLQERLRRKE
heavy 2: QMQLVQSGAEVKKTGSSVKVSCKASGYTFTSYSINWVRQAPGKGLEWVAYFYVGNGYTDYNEKFKGRVTMTRDTSTSTVYMELSSLRSEDTAVYYCARGGLPYYFDYWGQGTLVTVSSASTKGPSVFPLAPCSRSTSESTAALGCLVKDYFPEPVTVSWNSGALTSGVHTFPAVLQSSGLYSLSSVVTVPSSSLGTKTYTCNVDHKPSNTKVDKRVESKYGPPCPPCPAPEFLGGPSVFLFPPKPKDTLMISRTPEVTCVVVDVSQEDPEVQFNWYVDGVEVHNAKTKPREEQFNSTYRVVSVLTVLHQDWLNGKEYKCKVSNKGLPSSIEKTISKAKGQPREPQVYTLPPCQEEMTKNQVSLWCLVKGFYPSDIAVEWESNGQPENNYKTTPPVLDSDGSFFLYSRLTVDKSRWQEGNVFSCSVMHEALHNHYTQKSLSLSLG
B1: the “EC50 ratio1 (EC50 of FP/EC50 of IFN-α2b) on PD-L1-negative cells; IFN-α reporter assay (SEAP), PD-L1 blocked with REMD290” value stood at 33.9 fold.

B2: anti-PD-L1 Ab-con-IFN-α heterodimeric fusion molecule (FP-20), con-IFN-α (A146D and R150A), G8 linker (other)
light: B1 light
heavy 1: B1 heavy 1 with A598D
heavy 2: B1 heavy 2
For the molecule B2, the “EC50 ratio1 (EC50 of FP/EC50 of IFN-α2b) on PD-L1-negative cells; IFN-α reporter assay (SEAP), PD-L1 blocked with REMD290” value came to 1140 fold.
